Measurements: patent US20240409586A1, “CYCLIC POLYPEPTIDE CARRIER FOR EFFICIENT DELIVERY OF NUCLEIC ACID, AND VARIANTS THEREOF” (SUZHOU HEALIRNA BIOTECHNOLOGY CO., LTD., priority 2022, published 2024)
Bridge positions count the residues as written; N and C are the ends. Ends that are not written are not given here.

Experiments:
[1] = Dynamic light scattering of particles formed by cyclic peptide samples with siRNA; type: physicochemical; details: cyclic peptide/RNA mass ratio 4:1, DLS; for Zeta potential: in mV (unit assumed)
Experimental: Utilizing the Malvern Zetasizer Nano ZS (Malvern Nano Particle Sizing Instrument), the particle size (Size), polydispersity index (PDI), and zeta potential (Zeta P) of the particles formed after samples 1-9 encapsulate siRNA at a cyclic peptide/RNA mass ratio of 4:1 were measured by dynamic light scattering (DLS).

siRNA = test: Agarose gel electrophoresis of cyclic peptide/siRNA formulations (encapsulation); type: physicochemical; details: mass ratio of 4:1 of cyclic peptide/siRNA
Experimental: a. Weigh out 0.5 g of agarose powder and pour it into a conical flask, then add 50 mL of 1×TAE electrophoresis buffer into the flask. Dissolve it completely under heating conditions.
b. After cooling to 65° C., add 5 μL of ethidium bromide, swiftly pour into the gel casting tray, insert the comb, and let it stand at room temperature for 0.5-1 hour until the gel solidifies.
c. Next, remove the comb, pour 1×TAE electrophoresis buffer into the well to submerge the gel.
d. Prepare nine formulations of cyclic peptides with siRNA, using samples 1-9 at mass ratios of 1-4 of sample/siRNA. Mix 2 μL of 6× loading dye with 10 μL of samples, load 10 μL into the wells, and concurrently load 10 μL of DNA Marker and bare siRNA into the wells as controls.
e. Subsequently, run the electrophoresis at […] for 45 minutes, turn off the power supply, remove the gel, and observe and record the electrophoresis image with a UV gel imaging system.

[2] = Dynamic light scattering of cyclic peptide/siRNA and cyclic peptide/lipid/siRNA formulations; type: physicochemical; details: cyclic peptide/RNA 3:1; before and after binding with lipids (DSPC/cholesterol/RNA 2.4/3.1/1), DLS
Text: Sample 5 and 8 were selected and initially mixed in a microfluidic channel at a mass ratio of 3:1 cyclic peptide/RNA to form a particle solution, which was then left to stabilize.
The mass ratio of distearoylphosphatidylcholine (DSPC)/cholesterol/RNA was set at 2.4/3.1/1. DSPC and cholesterol were weighed and dissolved in a certain volume of ethanol solution.
The cyclic peptide/siRNA aqueous solution was mixed with the lipid ethanol solution through a microfluidic channel to form composite particles again, where the final concentration of ethanol was 25%. Dialysis was used to remove the ethanol, and the final lipid/cyclic peptide/nucleic acid composite particles were collected.
Using the Malvern Zetasizer Nano ZS, the particle size and polydispersity index (PDI) before and after binding with lipids (5-L and 8-L) were measured for sample 5 and 8 using dynamic light scattering.

293T cells = test: EGFP mRNA transfection, fluorescence microscopy; type: cell-based, human; details: 24 hours, S5/mRNA mass ratios 10:1, 12.5:1, 15:1
Text: 1. Sample preparation: Sample 5 (S5) was selected and mixed in a microfluidic channel to form a particle solution at different cyclic peptide/mRNA mass ratios (10:1, 12.5:1, 15:1), and then left to stabilize.
2. Control formulation: A lipid nanoparticle (LNP) control at a ratio of 4-(N,N-dimethylamino) butyric acid (dilinoleyl) methyl ester/DSPC/cholesterol/1,2-dimyristoyl-rac-glycerol-3-methoxypolyethylene glycol 2000=50:10:38.5:1.5 was used and mRNA was encapsulated according to the method described in Embodiment 3.
3. Cell plating: 293T cells were plated in a 24-well plate with 9 wells per cell type, each well containing 1 ml of medium and 1×10^5 cells, grown for 12 hours until adherence.
4. Solution preparation: PBS (control); for each group in 3 ml serum-free medium, 3×20 μl=60 μl of prepared sample was added and mixed well, 1 ml per well. Transfection group (lipo2000); in 1.2 ml serum-free medium, add 30 μl of mRNA at a concentration of 0.1 μg/μl and 3 μl×3=9 μl of lipo2000, mix well, let stand for 5-10 min. Cells were washed, transfection reagent was added at 400 μl per well, topped up with 600 μl DMEM complete medium. […]
5. Photo capture: Fluorescence photo: exposure time 600 ms, exposure magnification 14, exposure brightness +1; white light photo: exposure time 10 ms, exposure magnification 1, exposure brightness +1.

Substance | Polydispersity index [1] | Size [1] [nm] | Zeta potential [1] | encapsulation of siRNA (agarose gel electrophoresis) (siRNA) | PDI [2] | Size [2] [nm] | green fluorescent protein expression intensity versus control LNP group (293T cells)
Ala-Ala-Leu-Ala-Ala-Leu-Ala-Ala-Leu-Cys-Lys-Lys-Lys-Lys-Lys-Cys-Leu-Ala-Ala-Leu-Ala-Ala-Leu-Ala-Ala (AALAALAALCKKKKKCLAALAALAA; disulfide 10-16 (inferred)) [Sample 1] | 0.254 | 159.6 | 7.09 | – | – | – | –
Arg-Asp-Gly-Lys-Lys-Lys-Leu-Lys-Lys-Lys-Leu-Cys-Gln-Leu-Ile-Lys-Gln-Leu-Ile-Lys-Gln-Leu-Ile-Lys-Gln-Leu-Ile-Lys-Ile-Leu-Gln-Cys-Leu-Lys-Lys-Lys-Leu-Lys-Lys-Lys-Gly-Asp-Arg (RDGKKKLKKKLCQLIKQLIKQLIKQLIKILQCLKKKLKKKGDR; disulfide 12-32 (inferred)) [Sample 8] | 0.143 | 29.92 | 16.5 | encapsulate siRNA effectively | 0.15 | 31.85 | –
Arg-Asp-Gly-Lys-Val-Gln-Leu-Lys-Val-Gln-Leu-Cys-Gln-Lys-Lys-Lys-Gln-Lys-Lys-Lys-Gln-Lys-Lys-Lys-Gln-Lys-Lys-Lys-Lys-Lys-Gln-Cys-Leu-Gln-Val-Lys-Leu-Gln-Val-Lys-Gly-Asp-Arg (RDGKVQLKVQLCQKKKQKKKQKKKQKKKKKQCLQVKLQVKGDR; disulfide 12-32 (inferred)) [Sample 9] | 0.169 | 111.3 | 23.0 | encapsulate siRNA effectively | – | – | –
KKMLKKMLCQKKKKKQCLMKKLMKK (cysteine pairing not given here) [Sample 2] | 0.326 | 211.9 | 34.1 | – | – | – | –
Lys-Ala-Met-Leu-Lys-Ala-Met-Leu-Lys-Ala-Met-Leu-Cys-Lys-Lys-Lys-Lys-Lys-Lys-Lys-Lys-Lys-Lys-Lys-Lys-Lys-Lys-Lys-Cys-Leu-Met-Ala-Lys-Leu-Met-Ala-Lys-Leu-Met-Ala-Lys (KAMLKAMLKAMLCKKKKKKKKKKKKKKKCLMAKLMAKLMAK; disulfide 13-29 (inferred)) [Sample 7] | 0.139 | 145.1 | 26.3 | encapsulate siRNA effectively | – | – | –
Lys-Gln-Val-Leu-Lys-Gln-Val-Leu-Cys-Gln-Lys-Lys-Lys-Gln-Lys-Lys-Lys-Gln-Lys-Lys-Lys-Gln-Lys-Lys-Lys-Lys-Lys-Gln-Cys-Leu-Val-Gln-Lys-Leu-Val-Gln-Lys (KQVLKQVLCQKKKQKKKQKKKQKKKKKQCLVQKLVQK; disulfide 9-29 (inferred)) [Sample 6] | 0.355 | 32.58 | 21.2 | – | – | – | –
Lys-Leu-Leu-Lys-Leu-Leu-Lys-Leu-Leu-Lys-Leu-Leu-Cys-Lys-Lys-Lys-Lys-Lys-Cys-Leu-Leu-Lys-Leu-Leu-Lys-Leu-Leu-Lys-Leu-Leu-Lys (KLLKLLKLLKLLCKKKKKCLLKLLKLLKLLK; disulfide 13-19 (inferred)) [Sample 5] | 0.133 | 81.02 | – | encapsulate siRNA effectively | 0.176 | 60.17 | more pronounced green fluorescent protein compared to the control LNP group
Lys-Lys-Leu-Lys-Lys-Leu-Cys-Lys-Lys-Lys-Lys-Lys-Lys-Lys-Lys-Lys-Lys-Lys-Lys-Lys-Lys-Cys-Leu-Lys-Lys-Leu-Lys-Lys (KKLKKLCKKKKKKKKKKKKKKCLKKLKK; disulfide 7-22 (inferred)) [Sample 3] | 0.065 | 299.1 | 21.3 | – | – | – | –
Lys-Lys-Leu-Lys-Lys-Leu-Lys-Lys-Leu-Lys-Lys-Leu-Cys-Ala-Phe-Lys-Ala-Phe-Lys-Ala-Phe-Lys-Ala-Phe-Lys-Phe-Ala-Cys (KKLKKLKKLKKLCAFKAFKAFKAFKFAC; disulfide 13-28 (inferred)) [Sample 4] | 0.542 | 264.5 | 18.6 | poor encapsulation effects | – | – | –
